# No end group written: not given here. fluorescein = fluorescein attached to the C-terminus
# T1: GST-Ubr-box of Ubr5 (UniProt O95071 1177-1245)
# T1 construct: domain: Ubr-box; not shown: glutathione S-transferase (GST) tag
# T1 sequence (looked up): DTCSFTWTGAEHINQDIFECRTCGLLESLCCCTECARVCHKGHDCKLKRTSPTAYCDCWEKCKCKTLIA
# B1: tetrapeptide arginine-isoleucine-phenylalanine-serine (RIFS) with fluorescein attached to the C-terminus (peptide)
# peptide: RIFS-fluorescein
# notes: FP tracer, used at 9 nM; also called tracer
# What was measured:
# [1] = target: T2, Purified GST (glutathione S-transferase) (UniProt P08515 1-218 = GST); assay: fluorescence polarization, GST titrated into 9 nM tracer
# T2 construct: Control protein in the FP assay; also called GST alone
# T2 sequence (P08515 whole entry): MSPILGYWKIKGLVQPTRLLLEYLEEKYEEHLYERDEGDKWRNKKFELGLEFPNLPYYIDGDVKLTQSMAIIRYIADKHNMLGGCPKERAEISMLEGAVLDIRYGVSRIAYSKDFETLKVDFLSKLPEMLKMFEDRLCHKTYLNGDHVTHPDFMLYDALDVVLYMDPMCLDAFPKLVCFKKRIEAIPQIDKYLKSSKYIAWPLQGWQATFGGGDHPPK
# Source text: The FP assay uses a tetrapeptide with a sequence arginine-isoleucine-phenylalanine-serine (RIFS) with fluorescein attached to the C-terminus as tracer that was previously shown to bind to the Ubr-boxes of Ubr1 and Ubr2 with similar binding affinity. Assays were developed in 384-well plates, which were read on a Clariostar Reader. Signal-to-background ratio (S/B) was optimized by varying concentrations of GST-Ubr-box and tracer concentrations. GST-fusion proteins were used due to its larger size than Ubr-box alone to increase the FP effect. […] The optimized condition includes receptor concentration [GST-UBR1]=2 μM, tracer concentration [tracer]=9 nM, and the highest concentration of unlabeled peptidomimetic compound competitors at 200 μM with 3× serial dilutions.
# GST-Ubr-box of Ubr5 = target: T1, GST-Ubr-box of Ubr5; assay: fluorescence polarization, GST-Ubr-box titrated into 9 nM tracer
# [2] = target: T3, GST-UBR1 fusion protein (GST-Ubr-box of Ubr1) (human); assay: as above
# T3 construct: GST fusion used as such in the FP assay
# T3 sequence (chain, as listed by the source limits assumed): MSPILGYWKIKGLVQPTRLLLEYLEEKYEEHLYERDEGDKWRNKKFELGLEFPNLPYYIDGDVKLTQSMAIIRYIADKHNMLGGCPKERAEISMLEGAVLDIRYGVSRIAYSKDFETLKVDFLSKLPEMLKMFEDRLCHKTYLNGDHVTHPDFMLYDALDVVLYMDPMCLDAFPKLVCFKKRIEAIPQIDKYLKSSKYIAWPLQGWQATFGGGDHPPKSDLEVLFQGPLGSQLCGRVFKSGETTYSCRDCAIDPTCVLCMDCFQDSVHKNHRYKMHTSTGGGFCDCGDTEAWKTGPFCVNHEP
# GST-Ubr-box of Ubr4 = target: T4, GST-Ubr-box of Ubr4 (UniProt Q5T4S7 1656-1729); assay: as above
# T4 construct: domain: Ubr-box; not shown: glutathione S-transferase (GST) tag
# T4 sequence (Q5T4S7 1656-1729): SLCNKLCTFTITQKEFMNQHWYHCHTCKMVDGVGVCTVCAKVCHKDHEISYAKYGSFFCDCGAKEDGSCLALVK
# [3] = target: T5, GST-UBR2 fusion protein (GST-Ubr-box of Ubr2) (human); assay: as above
# T5 construct: GST fusion used as such in the FP assay
# T5 sequence (chain, as listed by the source limits assumed): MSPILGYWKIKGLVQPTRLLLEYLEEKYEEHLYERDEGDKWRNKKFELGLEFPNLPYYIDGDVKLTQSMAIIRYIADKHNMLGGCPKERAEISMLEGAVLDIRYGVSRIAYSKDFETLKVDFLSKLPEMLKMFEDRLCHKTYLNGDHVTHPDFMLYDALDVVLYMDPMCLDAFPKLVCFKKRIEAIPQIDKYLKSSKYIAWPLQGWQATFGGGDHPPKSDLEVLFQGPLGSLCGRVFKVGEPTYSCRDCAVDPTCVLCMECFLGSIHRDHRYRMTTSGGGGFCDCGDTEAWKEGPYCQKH
binder,measurement,setting,value
B1,binding result,[1],no binding
same,binding result,GST-Ubr-box of Ubr5,no binding
same,binding result,[2],binds
same,binding result,GST-Ubr-box of Ubr4,no binding
same,binding result,[3],binds

# — patent US20250186562A1 (University of California, published 2025)
